Source: the Human Domainome abundance scans (Beltran et al. 2025)
± gives the uncertainty stated by the source.

B1: Zinc finger MYM-type protein 3, residues 405 to 444; numbered along this chain, Q14202 (parent)
chain: DATRCSICQKTGEVLHEVSNGSVVHRLCSDSCFSKFRANK

Variants of: B1
Test: abundance fitness (aPCA) (normalised: wild type 0, dead -1); higher = more abundant; growth selection in yeast, the domain comes from the species named
Settings: Homo sapiens

Variant | abundance fitness
DATRVSICQKTGEVLHEVSNGSVVHRLCSDSCFSKFRANK | -0.999 ± 0.082
DATRWSICQKTGEVLHEVSNGSVVHRLCSDSCFSKFRANK | -1.06 ± 0.098
DATRYSICQKTGEVLHEVSNGSVVHRLCSDSCFSKFRANK | -0.97 ± 0.17
DATRCAICQKTGEVLHEVSNGSVVHRLCSDSCFSKFRANK | 0.104 ± 0.054
DATRCDICQKTGEVLHEVSNGSVVHRLCSDSCFSKFRANK | -0.302 ± 0.091
DATRCEICQKTGEVLHEVSNGSVVHRLCSDSCFSKFRANK | -0.103 ± 0.065
DATRCFICQKTGEVLHEVSNGSVVHRLCSDSCFSKFRANK | -0.012 ± 0.078
DATRCGICQKTGEVLHEVSNGSVVHRLCSDSCFSKFRANK | -0.252 ± 0.053
DATRCIICQKTGEVLHEVSNGSVVHRLCSDSCFSKFRANK | -0.021 ± 0.16
DATRCLICQKTGEVLHEVSNGSVVHRLCSDSCFSKFRANK | -0.312 ± 0.06
DATRCMICQKTGEVLHEVSNGSVVHRLCSDSCFSKFRANK | -0.365 ± 0.093
DATRCNICQKTGEVLHEVSNGSVVHRLCSDSCFSKFRANK | -0.218 ± 0.093
DATRCPICQKTGEVLHEVSNGSVVHRLCSDSCFSKFRANK | -0.009 ± 0.073
DATRCQICQKTGEVLHEVSNGSVVHRLCSDSCFSKFRANK | -0.285 ± 0.072
DATRCRICQKTGEVLHEVSNGSVVHRLCSDSCFSKFRANK | -0.228 ± 0.056
DATRCVICQKTGEVLHEVSNGSVVHRLCSDSCFSKFRANK | -0.469 ± 0.059
DATRCWICQKTGEVLHEVSNGSVVHRLCSDSCFSKFRANK | -0.182 ± 0.063
DATRCYICQKTGEVLHEVSNGSVVHRLCSDSCFSKFRANK | 0.052 ± 0.073
DATRCSACQKTGEVLHEVSNGSVVHRLCSDSCFSKFRANK | -0.325 ± 0.064
DATRCSCCQKTGEVLHEVSNGSVVHRLCSDSCFSKFRANK | -0.463 ± 0.092
DATRCSDCQKTGEVLHEVSNGSVVHRLCSDSCFSKFRANK | -0.376 ± 0.07

Variant | abundance fitness
DATRCSECQKTGEVLHEVSNGSVVHRLCSDSCFSKFRANK | -0.332 ± 0.065
DATRCSFCQKTGEVLHEVSNGSVVHRLCSDSCFSKFRANK | -0.13 ± 0.12
DATRCSGCQKTGEVLHEVSNGSVVHRLCSDSCFSKFRANK | -0.12 ± 0.051
DATRCSHCQKTGEVLHEVSNGSVVHRLCSDSCFSKFRANK | -0.267 ± 0.11
DATRCSKCQKTGEVLHEVSNGSVVHRLCSDSCFSKFRANK | -0.508 ± 0.098
DATRCSLCQKTGEVLHEVSNGSVVHRLCSDSCFSKFRANK | -0.146 ± 0.054
DATRCSMCQKTGEVLHEVSNGSVVHRLCSDSCFSKFRANK | -0.194 ± 0.072
DATRCSNCQKTGEVLHEVSNGSVVHRLCSDSCFSKFRANK | 0.209 ± 0.11
DATRCSPCQKTGEVLHEVSNGSVVHRLCSDSCFSKFRANK | -0.804 ± 0.14
DATRCSRCQKTGEVLHEVSNGSVVHRLCSDSCFSKFRANK | -0.25 ± 0.057
DATRCSSCQKTGEVLHEVSNGSVVHRLCSDSCFSKFRANK | -0.269 ± 0.063
DATRCSTCQKTGEVLHEVSNGSVVHRLCSDSCFSKFRANK | -0.218 ± 0.077
DATRCSVCQKTGEVLHEVSNGSVVHRLCSDSCFSKFRANK | -0.037 ± 0.054
DATRCSWCQKTGEVLHEVSNGSVVHRLCSDSCFSKFRANK | -0.218 ± 0.061
DATRCSYCQKTGEVLHEVSNGSVVHRLCSDSCFSKFRANK | 0.079 ± 0.089
DATRCSIDQKTGEVLHEVSNGSVVHRLCSDSCFSKFRANK | -0.895 ± 0.15
DATRCSIEQKTGEVLHEVSNGSVVHRLCSDSCFSKFRANK | -0.85 ± 0.074
DATRCSIFQKTGEVLHEVSNGSVVHRLCSDSCFSKFRANK | -0.754 ± 0.13
DATRCSIGQKTGEVLHEVSNGSVVHRLCSDSCFSKFRANK | -0.86 ± 0.057
DATRCSIIQKTGEVLHEVSNGSVVHRLCSDSCFSKFRANK | -0.978 ± 0.2
DATRCSIKQKTGEVLHEVSNGSVVHRLCSDSCFSKFRANK | -0.999 ± 0.097

Variant | abundance fitness
DATRCSILQKTGEVLHEVSNGSVVHRLCSDSCFSKFRANK | -0.843 ± 0.078
DATRCSIMQKTGEVLHEVSNGSVVHRLCSDSCFSKFRANK | -1.21 ± 0.11
DATRCSINQKTGEVLHEVSNGSVVHRLCSDSCFSKFRANK | -0.779 ± 0.15
DATRCSIPQKTGEVLHEVSNGSVVHRLCSDSCFSKFRANK | -0.912 ± 0.11
DATRCSIQQKTGEVLHEVSNGSVVHRLCSDSCFSKFRANK | -0.993 ± 0.077
DATRCSIRQKTGEVLHEVSNGSVVHRLCSDSCFSKFRANK | -0.787 ± 0.057
DATRCSISQKTGEVLHEVSNGSVVHRLCSDSCFSKFRANK | -0.927 ± 0.081
DATRCSITQKTGEVLHEVSNGSVVHRLCSDSCFSKFRANK | -0.61 ± 0.072
DATRCSIVQKTGEVLHEVSNGSVVHRLCSDSCFSKFRANK | -1.11 ± 0.067
DATRCSIWQKTGEVLHEVSNGSVVHRLCSDSCFSKFRANK | -1.19 ± 0.095
DATRCSIYQKTGEVLHEVSNGSVVHRLCSDSCFSKFRANK | -0.774 ± 0.15
DATRCSICAKTGEVLHEVSNGSVVHRLCSDSCFSKFRANK | -0.585 ± 0.072
DATRCSICCKTGEVLHEVSNGSVVHRLCSDSCFSKFRANK | -0.215 ± 0.1
DATRCSICDKTGEVLHEVSNGSVVHRLCSDSCFSKFRANK | -0.293 ± 0.11
DATRCSICEKTGEVLHEVSNGSVVHRLCSDSCFSKFRANK | 0.023 ± 0.075
DATRCSICFKTGEVLHEVSNGSVVHRLCSDSCFSKFRANK | -0.087 ± 0.075
DATRCSICGKTGEVLHEVSNGSVVHRLCSDSCFSKFRANK | -0.16 ± 0.056
DATRCSICHKTGEVLHEVSNGSVVHRLCSDSCFSKFRANK | -0.194 ± 0.085
DATRCSICKKTGEVLHEVSNGSVVHRLCSDSCFSKFRANK | -0.05 ± 0.064
DATRCSICLKTGEVLHEVSNGSVVHRLCSDSCFSKFRANK | -0.22 ± 0.058
